Data set [1] concerns the molecule itself. The data set can be described thus: SEC; Superose 12 10/300 GL, pH 8.0 (50 mM Tris), 0.250 M NaCl, 0.8 mL/min; C-LrtA loaded at 500 uM (protomer), 100 uL. In general terms: Size exclusion chromatography separates by hydrodynamic size, large species first.
Data set [2] concerns the molecule itself. The data set can be described thus: native gel or EMSA; blue-native PAGE, linear 4-16% gradient gel, 20 ug C-LrtA with Coomassie Brilliant blue G, 4 °C; increasing amounts of SDS also tested.
Data set [3] deals with the molecule itself. The data set can be described thus: cross-linking; glutaraldehyde, pH 7.2 (50 mM Tris), 120 uM C-LrtA (protomer), 200 uL, several reaction times, SDS-PAGE.
Data set [4] deals with the molecule itself. The data set can be described thus: SEC; Superose 12 10/300 GL, pH 8.0 (50 mM Tris), 0.250 M NaCl, 0.8 mL/min; C-LrtA loaded at 30 uM (protomer), 100 uL.

Consider 1 protein from PMC6321479, “The C Terminus of the Ribosomal-Associated Protein LrtA Is an Intrinsically Disordered Oligomer” (International Journal of Molecular Sciences, 2018).

B1: C-terminal region of LrtA (C-LrtA, residues 102-191) with N-terminal His-tag (domain or fragment, Synechocystis sp. PCC 6803)
chain: QHGNVKTSEIVEDKPVEENLIGDRAPELPSEVLRMKYFAMPPMAIEDALEQLQLVDHDFYMFRNKDTDEINVIYIRNHGGYGVIQPHQAS
notes: LrtA of Synechocystis sp; PCC 6803 (191 residues), residues 102-191; whole construct 109 residues with the His-tag, 12,449.89 Da; Cloned in pHTP1 by NZytech; also called isolated C-LrtA; C-terminal half of LrtA protein; source: E. coli BL21 (DE3), purified (Ni-resin IMAC, Hi-Trap Mono Q)
For orientation: stoichiometry N means the number of molecules, sites or subunits per partner or assembly. For the protein B1, the “stoichiometry N” value is around 8 in data set [1], 5 in data set [2], 2 in data set [3] and around 2 in data set [4].
